Assay results taken from patent US20260201008A1, “SECRETIN-DERIVED GLP1R SELECTIVE AGONISTS” (GUBRA A/S, priority 2023, published 2026).
Numbered stars: 1 amine (or outer) side, 2 acyl side, 3 side chain; on linkers, the order of the positions; unused ones are H or OH. Square brackets hold non-standard residues; d marks the D form. Side chains are listed from the residue outwards. Ends that are not written are not given here. * marks the point of attachment. C20 diacid = O=C(O)CCCCCCCCCCCCCCCCCCC(=O)*; γGlu = O=C(O)[C@H](CCC(=O)[*:2])N[*:1]; AEEA = NCCOCCOCC(=O)O; Aib = CC(C)(N)C(=O)O

molecular target: human GLP-1 receptor (hGLP1R) (human, UniProt P43220 24-463); experiment: cell-based or functional assay

| Binder | pEC50 hGLPR1 |
| --- | --- |
| H[Aib]EGTFTSDVSTLK([AEEA-AEEA-γGlu-C20 diacid])ETAAEQRFLEHLV-NH2 [SEQ ID NO: 42] | 10.8 -log M |
| H[Aib]EGTFTSDVSFLK([AEEA-AEEA-γGlu-C20 diacid])EEAASQRFLEHLV-NH2 [SEQ ID NO: 38] | 10.5 -log M |
| H[Aib]EGTFTSDVSVLK([AEEA-AEEA-γGlu-C20 diacid])ETAAQQRFLEHLV-NH2 [SEQ ID NO: 41] | 11.1 -log M |
| H[Aib]EGTFTSDVSVLK([AEEA-AEEA-γGlu-C20 diacid])E[Aib]AATQRFLEHLV-NH2 [SEQ ID NO: 49] | 10.7 -log M |
| H[Aib]EGTFTSDVSTLK([AEEA-AEEA-γGlu-C20 diacid])E[Aib]AAAQRFLEHLV-NH2 [SEQ ID NO: 43] | 11 -log M |
| H[Aib]EGTFTSDVSYLK([AEEA-AEEA-γGlu-C20 diacid])ETAATQRFLEHLV-NH2 [SEQ ID NO: 4] | 11.1 -log M |
| H[Aib]EGTFTSDVSYLK([AEEA-AEEA-γGlu-C20 diacid])EEAAQQRFLEHLV-NH2 [SEQ ID NO: 47] | 10.8 -log M |
| H[Aib]EGTFTSDVSELK([AEEA-AEEA-γGlu-C20 diacid])ELAAEQRFLEHLV-NH2 [SEQ ID NO: 36] | 10.5 -log M |
| H[Aib]EGTFTSDVSVLK([AEEA-AEEA-γGlu-C20 diacid])E[Aib]AAQQRFLEHLV-NH2 [SEQ ID NO: 40] | 10.7 -log M |
| H[Aib]EGTFTSDVSYLK([AEEA-AEEA-γGlu-C20 diacid])EFAA[Aib]QRFLEHLV-NH2 [SEQ ID NO: 46] | 10.3 -log M |
| H[Aib]EGTFTSDVSYLK([AEEA-AEEA-γGlu-C20 diacid])E[Aib]AATQRFLEHLV-NH2 [SEQ ID NO: 48] | 10.6 -log M |
| H[Aib]EGTFTSDVSELK([AEEA-AEEA-γGlu-C20 diacid])ETAA[Aib]QRFLEHLV-NH2 [SEQ ID NO: 45] | 10.7 -log M |
| H[Aib]EGTFTSDVSVLK([AEEA-AEEA-γGlu-C20 diacid])EEAA[Aib]QRFLEHLV-NH2 [SEQ ID NO: 35] | 10.8 -log M |
| H[Aib]EGTFTSDVSFLK([AEEA-AEEA-γGlu-C20 diacid])ETAAAQRFLEHLV-NH2 [SEQ ID NO: 44] | 10.5 -log M |
| H[Aib]EGTFTSDVSFLK([AEEA-AEEA-γGlu-C20 diacid])EEAA[Aib]QRFLEHLV-NH2 [SEQ ID NO: 37] | 10.9 -log M |
| H[Aib]EGTFTSDVSTLK([AEEA-AEEA-γGlu-C20 diacid])EEAAQQRFLEHLV-NH2 [SEQ ID NO: 39] | 10.8 -log M |

molecular target: human secretin receptor (hSCTR) (human, UniProt P47872 23-440); experiment: cell-based or functional assay
Sequence (P47872 23-440): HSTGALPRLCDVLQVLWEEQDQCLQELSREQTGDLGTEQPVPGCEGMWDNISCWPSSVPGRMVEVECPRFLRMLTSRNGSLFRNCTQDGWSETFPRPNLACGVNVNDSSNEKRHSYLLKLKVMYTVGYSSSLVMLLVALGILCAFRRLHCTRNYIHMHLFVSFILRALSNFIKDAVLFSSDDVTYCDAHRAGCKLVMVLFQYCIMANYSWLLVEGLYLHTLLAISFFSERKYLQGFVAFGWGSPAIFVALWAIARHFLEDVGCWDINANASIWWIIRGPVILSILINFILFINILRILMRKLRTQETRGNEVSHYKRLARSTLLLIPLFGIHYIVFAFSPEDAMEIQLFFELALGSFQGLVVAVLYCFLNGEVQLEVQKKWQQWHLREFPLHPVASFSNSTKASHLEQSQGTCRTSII

| Binder | pEC50 hSCTR |
| --- | --- |
| H[Aib]EGTFTSDVSTLK([AEEA-AEEA-γGlu-C20 diacid])ETAAEQRFLEHLV-NH2 [SEQ ID NO: 42] | 5.5 -log M |
| H[Aib]EGTFTSDVSFLK([AEEA-AEEA-γGlu-C20 diacid])EEAASQRFLEHLV-NH2 [SEQ ID NO: 38] | 6 -log M |
| H[Aib]EGTFTSDVSVLK([AEEA-AEEA-γGlu-C20 diacid])ETAAQQRFLEHLV-NH2 [SEQ ID NO: 41] | 6.9 -log M |
| H[Aib]EGTFTSDVSVLK([AEEA-AEEA-γGlu-C20 diacid])E[Aib]AATQRFLEHLV-NH2 [SEQ ID NO: 49] | 6.9 -log M |
| H[Aib]EGTFTSDVSTLK([AEEA-AEEA-γGlu-C20 diacid])E[Aib]AAAQRFLEHLV-NH2 [SEQ ID NO: 43] | 6.5 -log M |
| H[Aib]EGTFTSDVSYLK([AEEA-AEEA-γGlu-C20 diacid])ETAATQRFLEHLV-NH2 [SEQ ID NO: 4] | 7 -log M |
| H[Aib]EGTFTSDVSYLK([AEEA-AEEA-γGlu-C20 diacid])EEAAQQRFLEHLV-NH2 [SEQ ID NO: 47] | 6.6 -log M |
| H[Aib]EGTFTSDVSELK([AEEA-AEEA-γGlu-C20 diacid])ELAAEQRFLEHLV-NH2 [SEQ ID NO: 36] | 6.5 -log M |
| H[Aib]EGTFTSDVSVLK([AEEA-AEEA-γGlu-C20 diacid])E[Aib]AAQQRFLEHLV-NH2 [SEQ ID NO: 40] | 6.4 -log M |
| H[Aib]EGTFTSDVSYLK([AEEA-AEEA-γGlu-C20 diacid])EFAA[Aib]QRFLEHLV-NH2 [SEQ ID NO: 46] | 5.4 -log M |
| H[Aib]EGTFTSDVSYLK([AEEA-AEEA-γGlu-C20 diacid])E[Aib]AATQRFLEHLV-NH2 [SEQ ID NO: 48] | 6.9 -log M |
| H[Aib]EGTFTSDVSELK([AEEA-AEEA-γGlu-C20 diacid])ETAA[Aib]QRFLEHLV-NH2 [SEQ ID NO: 45] | 5.7 -log M |
| H[Aib]EGTFTSDVSVLK([AEEA-AEEA-γGlu-C20 diacid])EEAA[Aib]QRFLEHLV-NH2 [SEQ ID NO: 35] | 6.1 -log M |
| H[Aib]EGTFTSDVSFLK([AEEA-AEEA-γGlu-C20 diacid])ETAAAQRFLEHLV-NH2 [SEQ ID NO: 44] | 5.4 -log M |
| H[Aib]EGTFTSDVSFLK([AEEA-AEEA-γGlu-C20 diacid])EEAA[Aib]QRFLEHLV-NH2 [SEQ ID NO: 37] | 5.7 -log M |
| H[Aib]EGTFTSDVSTLK([AEEA-AEEA-γGlu-C20 diacid])EEAAQQRFLEHLV-NH2 [SEQ ID NO: 39] | 6.5 -log M |
